Experimental data taken from paper PMC9770967, “Native holdup (nHU) to measure binding affinities from cell extracts” (Science Advances, 2022).
Each block holds one molecule with its values, some of them ahead of it.

How the values were obtained:
Assay type in all cases: binding, human
full-length SNX27 = assay: nHU-MS, recombinant full-length SNX27 bait, total Jurkat extracts; conditions: apparent, Fig. 4D, n = 6
Procedure: (§1) The empty His6-AviTag-MBP-TEV vector was used to produce biotinylated MBP for control experiments. Proteins were coexpressed with BirA biotin ligase (PET21a-BirA, Addgene, no. 20857) in Escherichia coli BL21(DE3) cells. At isopropyl-β-D-thiogalactopyranoside (IPTG) induction (1 mM IPTG at 18°C overnight), 50 μM biotin was added to the media. Harvested cells were lysed in a buffer containing 50 mM tris (pH 7.5), 150 to 300 mM NaCl, 50 μM biotin, 2 mM β-mercaptoethanol, cOmplete EDTA-free protease inhibitor cocktail (Roche, Basel, Switzerland), 1% Triton X-100, and trace amount of deoxyribonuclease, ribonuclease, and lysozyme. Lysates were frozen at −20°C before further purification steps. Lysates were sonicated and centrifuged for clarification. Expressed proteins were captured on in-house prepacked Ni-IDA (Protino Ni-IDA Resin, Macherey-Nagel, Duren, Germany) columns and were washed with at least 10 column volumes of cold wash buffer [50 mM tris (pH 7.5), 150 mM NaCl, and 2 mM β-mercaptoethanol] before elution with 250 mM imidazole. The Ni elution was collected directly on a preequilibrated amylose column (amylose high flow resin, New England Biolabs, Ipswich, MA). Amylose column was washed with 5 column volumes of cold wash buffer before fractionated elution in a buffer containing 25 mM Hepes (pH 7.5), 150 mM NaCl, 1 mM TCEP, 10% glycerol, 5 mM maltose, and cOmplete EDTA-free protease inhibitor cocktail. The concentration of proteins was determined by their ultraviolet absorption at 280 nm before aliquots were snap-frozen in liquid nitrogen and stored at −80°C.
(§2) For saturating streptavidin resin with biotinylated peptides or biotin, 50 μl of streptavidin resin was mixed with biotin or peptide at 40 to 60 μM concentration in 6 to 6.5 resin volume for 60 min. To saturate streptavidin resin with biotinylated proteins, 50 μl of streptavidin resin (Streptavidin Sepharose High Performance, Cytiva) was mixed with biotinylated MBP or MBP-PDZ at 40 to 50 μM concentration in 20× resin volume for 60 min. After saturation, resins were washed a single time [10 resin volume, holdup buffer: 50 mM tris (pH 7.5), 300 mM NaCl, and 1 mM TCEP, 0.22-μm filtered] and were depleted with biotin (10 resin volume, 10 min, holdup buffer supplemented with 100 μM biotin). Last, resins were washed two times (10 resin volume, holdup buffer).
(§3) For single-point nHU experiments carried out at ~10 μM bait concentration, 50 μl of saturated streptavidin resin was mixed with 200 μl of cell lysate (2 mg/ml). Titration experiments were carried out by mixing control and bait-saturated resin and keeping the total resin volume constant; e.g., ~5 μM bait concentration can be achieved by mixing 25 μl of bait-saturated streptavidin resin with 25 μl of control resin and 200 μl of cell lysate (2 mg/ml). Control and bait-saturated resins were prepared in larger amounts, and a serial dilution was prepared with these presaturated resins to achieve different resin ratios.
Unless specified elswhere, the nHU mixture was incubated at 4°C for 2 hours. After the incubation ended, the resin was separated from the supernatant by a brief centrifugation (15 s, 2000 g). Then, half of the supernatant was removed by pipetting without any delay to avoid any resin contamination; e.g., 100 μl of supernatant is collected if 200 μl of cell lysate was used as analyte. Alternatively, the supernatant can be centrifuged an additional time to clarify it further, removing any possible resin contamination. […]

SNX27_PDZ [1] = assay: nHU-MS, SNX27_PDZ bait, total Jurkat extracts, series 1; conditions: nHU-MS, total Jurkat extract
Procedure: as §1, §2, §3
Unless specified elswhere, the nHU mixture was incubated at 4°C for 2 hours. After the incubation ended, the resin was separated from the supernatant by a brief centrifugation (15 s, 2000 g). Then, half of the supernatant was removed by pipetting without any delay to avoid any resin contamination; e.g., 100 μl of supernatant is collected if 200 μl of cell lysate was used as analyte. Alternatively, the supernatant can be centrifuged an additional time to clarify it further, removing any possible resin contamination. In principle, the separation of the supernatant should be as fast as possible since any delay can perturb the equilibrium. […] Alternatively, the resin can be separated from the supernatant using filter plates (e.g., various products of Millipore, Burlington, MA) or spin columns (e.g., Pierce spin cups—cellulose acetate filter from Thermo Fisher Scientific, Waltham, MA) to achieve faster separation. […]

SNX27_PDZ [2] = assay: AP-MS control pull-down on leftover resin, SNX27_PDZ bait, total Jurkat extracts; conditions: AP-MS control pull-down, total Jurkat extract
Procedure: Leftover beads from nHU-MS experiments were washed three times immediately after the separation of the supernatant [10 resin volume in buffer containing 50 mM tris (pH 8.5), 150 mM NaCl, 1% Triton X-100, 10× cOmplete EDTA-free protease inhibitor cocktail, 2 mM EDTA, and 1 mM TCEP]. Then, the beads were washed two times [10 resin volume buffer containing 50 mM tris (pH 8.5), 150 mM NaCl, and 1 mM TCEP]. Last, captured protein was eluted from the resin in two steps, and the eluted fractions were pooled. For each elution, the beads were incubated for 30 min with three resin volume buffer containing 20 mM tris (pH 8.5), 100 mM NaCl, 500 μM TCEP, and 8 M urea. Between each step, the beads were separated by mild centrifugation, and the supernatant was removed by gentle pipetting.
The nHU samples were precipitated with trichloroacetic acid (TCA) 20% overnight at 4°C and centrifuged at 14,000 rpm for 10 min at 4°C. The protein pellets were washed twice with 1 ml of cold acetone and air-dried. The protein extracts were solubilized in 8 M urea, reduced with 5 mM TCEP for 30 min, and alkylated with 10 mM iodoacetamide for 30 min in the dark. Double digestion was performed at 37°C with 500 ng of endoproteinase Lys-C (Wako, Richmond, USA) for 4 hours, followed by fourfold dilution and an overnight digestion with 500 ng of trypsin (Promega, Charbonnieres les Bains, France). Peptide mixtures were then desalted on a C18 spin-column and dried on a speed vacuum.
Samples were analyzed using an Ultimate 3000 nano-RSLC coupled in line via a nano-electrospray ionization source, with an LTQ-Orbitrap ELITE mass spectrometer (Thermo Fisher Scientific, San Jose, CA) or with the Orbitrap Exploris 480 mass spectrometer (Thermo Fisher Scientific, Bremen, Germany) equipped with a high field asymmetric ion mobility spectrometry (FAIMS) module. Peptide mixtures were injected in 0.1% trifluoroacetic acid on a C18 Acclaim PepMap100 trap column [75 μm inner diameter (ID) × 2 cm, 3 μm, 100 Å, Thermo Fisher Scientific] for 3 min at 5 μl/min with 2% acetonitrile (ACN) and 0.1% formic acid (FA) in H2O and then separated on a C18 Acclaim PepMap100 nano-column (75 μm ID × 50 cm, 2.6 μm, 150 Å, Thermo Fisher Scientific) at 300 nl/min and 40°C with a 90-min linear gradient from 5 to 30% buffer B (A: 0.1% FA in H2O/B: 80% ACN, 0.1% FA in H2O) and regeneration at 5% B. Spray voltage was set to 2.1 kV and heated capillary temperature was set to 280°C.
For the Orbitrap Elite, the mass spectrometer was operated in positive ionization mode in data-dependent mode with survey scans from mass/charge ratio (m/z) 350 to 1500 acquired in the Orbitrap at a resolution of 120,000 at m/z 400. The 20 most intense peaks from survey scans were selected for further fragmentation in the linear ion trap with an isolation window of 2.0 Da and were fragmented by collision-induced dissociation (CID) with a normalized collision energy of 35% (TOP 20 CID method). Unassigned and single-charged states were excluded from fragmentation. The ion target value for the survey scans (in the Orbitrap) and the MS2 mode (in the linear ion trap) were set to 1E6 and 5E3, respectively, and the maximum injection time was set to 100 ms for both scan modes. Dynamic exclusion was set to 20 s after one repeat count with mass width at ±10 parts per million (ppm).
Proteins were identified by database search using SequestHT (Thermo Fisher Scientific) with Proteome Discoverer 2.4 software (PD2.4, Thermo Fisher Scientific) on the human FASTA database downloaded from UniProt (reviewed, release 2021_06_03, 20380 entries, https://uniprot.org/, complemented with sequences of likely contaminants, such as MBP, streptavidin, or trypsin). Precursor and fragment mass tolerances were set at 7 ppm and 0.6 Da, respectively, and up to two missed cleavages were allowed. […]

B1: SNX2: component of the SNX-BAR complex (protein, UniProt O60749 1-519, looked up)
Sorting nexin-2: MAAEREPPPLGDGKPTDFEDLEDGEDLFTSTVSTLESSPSSPEPASLPAEDISANSNGPKPTEVVLDDDREDLFAEATEEVSLDSPEREPILSSEPSPAVTPVTPTTLIAPRIESKSMSAPVIFDRSREEIEEEANGDIFDIEIGVSDPEKVGDGMNAYMAYRVTTKTSLSMFSKSEFSVKRRFSDFLGLHSKLASKYLHVGYIVPPAPEKSIVGMTKVKVGKEDSSSTEFVEKRRAALERYLQRTVKHPTLLQDPDLRQFLESSELPRAVNTQALSGAGILRMVNKAADAVNKMTIKMNESDAWFEEKQQQFENLDQQLRKLHVSVEALVCHRKELSANTAAFAKSAAMLGNSEDHTALSRALSQLAEVEEKIDQLHQEQAFADFYMFSELLSDYIRLIAAVKGVFDHRMKCWQKWEDAQITLLKKREAEAKMMVANKPDKIQQAKNEIREWEAKVQQGERDFEQISKTIRKEVGRFEKERVKDFKTVIIKYLESLVQTQQQLIKYWEAFLPEAKAIA
pKapp (full-length SNX27): 5.04

B3: SNX5: component of the SNX-BAR complex (protein, UniProt Q9Y5X3 2-404, looked up)
Sorting nexin-5: AAVPELLQQQEEDRSKLRSVSVDLNVDPSLQIDIPDALSERDKVKFTVHTKTTLPTFQSPEFSVTRQHEDFVWLHDTLIETTDYAGLIIPPAPTKPDFDGPREKMQKLGEGEGSMTKEEFAKMKQELEAEYLAVFKKTVSSHEVFLQRLSSHPVLSKDRNFHVFLEYDQDLSVRRKNTKEMFGGFFKSVVKSADEVLFTGVKEVDDFFEQEKNFLINYYNRIKDSCVKADKMTRSHKNVADDYIHTAACLHSLALEEPTVIKKYLLKVAELFEKLRKVEGRVSSDEDLKLTELLRYYMLNIEAAKDLLYRRTKALIDYENSNKALDKARLKSKDVKLAEAHQQECCQKFEQLSESAKEELINFKRKRVAAFRKNLIEMSELEIKHARNNVSLLQSCIDLFKNN
pKapp (full-length SNX27): 5.23

The next lines start with results.

pKapp (full-length SNX27): 5.47
B2: SNX6: component of the SNX-BAR complex (protein, UniProt Q9UNH7 1-406, looked up)
Sorting nexin-6: MMEGLDDGPDFLSEEDRGLKAINVDLQSDAALQVDISDALSERDKVKFTVHTKSSLPNFKQNEFSVVRQHEEFIWLHDSFVENEDYAGYIIPPAPPRPDFDASREKLQKLGEGEGSMTKEEFTKMKQELEAEYLAIFKKTVAMHEVFLCRVAAHPILRRDLNFHVFLEYNQDLSVRGKNKKEKLEDFFKNMVKSADGVIVSGVKDVDDFFEHERTFLLEYHNRVKDASAKSDRMTRSHKSAADDYNRIGSSLYALGTQDSTDICKFFLKVSELFDKTRKIEARVSADEDLKLSDLLKYYLRESQAAKDLLYRRSRSLVDYENANKALDKARAKNKDVLQAETSQQLCCQKFEKISESAKQELIDFKTRRVAAFRKNLVELAELELKHAKGNLQLLQNCLAVLNGDT

pKapp_HU_not_filtered (SNX27_PDZ [1]; SNX27 bait, not filtered for significance): 4.758
B4: ZC3HAV1 (protein, UniProt Q7Z2W4 2-902, looked up)
Zinc finger CCCH-type …: ADPEVCCFITKILCAHGGRMALDALLQEIALSEPQLCEVLQVAGPDRFVVLETGGEAGITRSVVATTRARVCRRKYCQRPCDNLHLCKLNLLGRCNYSQSERNLCKYSHEVLSEENFKVLKNHELSGLNKEELAVLLLQSDPFFMPEICKSYKGEGRQQICNQQPPCSRLHICDHFTRGNCRFPNCLRSHNLMDRKVLAIMREHGLNPDVVQNIQDICNSKHMQKNPPGPRAPSSHRRNMAYRARSKSRDRFFQGSQEFLASASASAERSCTPSPDQISHRASLEDAPVDDLTRKFTYLGSQDRARPPSGSSKATDLGGTSQAGTSQRFLENGSQEDLLHGNPGSTYLASNSTSAPNWKSLTSWTNDQGARRKTVFSPTLPAARSSLGSLQTPEAVTTRKGTGLLSSDYRIINGKSGTQDIQPGPLFNNNADGVATDITSTRSLNYKSTSSGHREISSPRIQDAGPASRDVQATGRIADDADPRVALVNDSLSDVTSTTSSRVDDHDSEEICLDHLCKGCPLNGSCSKVHFHLPYRWQMLIGKTWTDFEHMETIEKGYCNPGIHLCSVGSYTINFRVMSCDSFPIRRLSTPSSVTKPANSVFTTKWIWYWKNESGTWIQYGEEKDKRKNSNVDSSYLESLYQSCPRGVVPFQAGSRNYELSFQGMIQTNIASKTQKDVIRRPTFVPQWYVQQMKRGPDHQPAKTSSVSLTATFRPQEDFCFLSSKKYKLSEIHHLHPEYVRVSEHFKASMKNFKIEKIKKIENSELLDKFTWKKSQMKEEGKLLFYATSRAYVESICSNNFDSFLHETHENKYGKGIYFAKDAIYSHKNCPYDAKNVVMFVAQVLVGKFTEGNITYTSPPPQFDSCVDTRSNPSVFVIFQKDQVYPQYVIEYTEDKACVIS
Ratio_HU (SNX27_PDZ [1]; SNX27/MBP, sheet "SNX27&Jurkat"): 0.6368
BI_HU (SNX27_PDZ [1]; SNX27 bait vs MBP control, sheet "SNX27&Jurkat"): 0.3632
FC_HU (SNX27_PDZ [1]; SNX27 vs MBP control, sheet "SNX27&Jurkat"): -0.651
Ratio_AP (SNX27_PDZ [2]; SNX27/MBP): 128.984
FC_AP (SNX27_PDZ [2]; SNX27 vs MBP): 7.011
BINDER_AP (SNX27_PDZ [2]; BINDS / DOES NOT BIND): BINDS
